In assay [1] the target is T1, rat amylin receptor (rat calcitonin receptor + rat RAMP 3) (rat, UniProt P32214 25-516; Q9JJ73 23-147).
T1 construct: whole, on cells; Used as membranes prepared from the transfected cells; also called rAmylin-R; rat amylin 3(a) receptor
T1 sequence (looked up) 1: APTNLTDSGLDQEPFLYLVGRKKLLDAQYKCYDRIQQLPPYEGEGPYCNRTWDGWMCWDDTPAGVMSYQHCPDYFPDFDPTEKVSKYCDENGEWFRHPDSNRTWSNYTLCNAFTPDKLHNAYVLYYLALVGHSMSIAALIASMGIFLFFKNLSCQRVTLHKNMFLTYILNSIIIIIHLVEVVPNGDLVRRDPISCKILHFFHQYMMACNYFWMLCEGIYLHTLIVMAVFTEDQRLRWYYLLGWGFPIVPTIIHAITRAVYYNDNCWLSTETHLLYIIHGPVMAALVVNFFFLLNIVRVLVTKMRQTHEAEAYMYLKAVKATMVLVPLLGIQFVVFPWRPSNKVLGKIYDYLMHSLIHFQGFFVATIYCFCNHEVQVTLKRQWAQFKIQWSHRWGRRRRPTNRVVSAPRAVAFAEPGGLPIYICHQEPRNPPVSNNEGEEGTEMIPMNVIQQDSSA
T1 sequence (looked up) 2: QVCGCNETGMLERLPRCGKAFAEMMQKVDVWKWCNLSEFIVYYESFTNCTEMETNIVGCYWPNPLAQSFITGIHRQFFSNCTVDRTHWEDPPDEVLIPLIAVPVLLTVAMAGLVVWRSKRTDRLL
The experiment in a line: SPA competition with 125I-rat amylin, membranes of BHK cells with rat calcitonin receptor + rat RAMP3 (Assay VI).

Assay [2] concerns the target T2, rat calcitonin receptor (rat, UniProt P32214 25-516).
T2 construct: whole, on cells; Used as membranes prepared from the transfected cells; also called rCTR; rat calcitonin (a) receptor
T2 sequence (looked up): T1 sequence (looked up) 1
The experiment in a line: ratio IC50 rat calcitonin receptor / IC50 rat amylin receptor (Assays VIII and VI).

Assay [3] addresses T3, human calcitonin receptor (human, UniProt P30988 25-474).
T3 construct: whole, on cells; Used as membranes prepared from the transfected cells (Assay VII); also called hCTR; hCT
T3 sequence (looked up): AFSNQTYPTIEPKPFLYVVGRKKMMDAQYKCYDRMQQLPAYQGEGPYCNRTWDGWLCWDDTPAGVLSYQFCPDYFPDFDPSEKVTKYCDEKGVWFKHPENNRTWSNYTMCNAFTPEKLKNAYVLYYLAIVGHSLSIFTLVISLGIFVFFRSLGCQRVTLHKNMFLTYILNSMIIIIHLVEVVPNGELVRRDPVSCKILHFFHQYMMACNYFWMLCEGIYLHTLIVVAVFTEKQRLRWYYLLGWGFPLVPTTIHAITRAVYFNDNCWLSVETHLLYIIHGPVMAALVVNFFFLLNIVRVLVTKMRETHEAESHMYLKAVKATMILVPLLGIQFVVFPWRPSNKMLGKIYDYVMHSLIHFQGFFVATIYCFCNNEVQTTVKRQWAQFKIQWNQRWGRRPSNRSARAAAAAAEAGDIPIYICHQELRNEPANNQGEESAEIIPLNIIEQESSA
The experiment in a line: ratio IC50 human calcitonin receptor / IC50 human amylin receptor (Assays VII and V). In a few lines:
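Membranes (35 ng/μL final) + SPA beads, 50 mM Hepes pH 7.4 buffer with 1 mM CaCl2, 5 mM MgCl₂, 0.1% OA, 0.02% Tween20; 120 min, 25° C, shaking; centrifuged, counted; IC₅₀ by one-site binding competition.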

In assay [4] the target is T2, rat calcitonin receptor. The experiment in a line: SPA competition with 125I-calcitonin, membranes of BHK cells with rat calcitonin receptor (Assay VIII).

Numbered stars: 1 amine (or outer) side, 2 acyl side, 3 side chain; on linkers, the order of the positions; unused ones are H or OH. Bridge positions count the residues as written; N and C are the ends. Side chains are listed from the residue outwards. Ends that are not written are not given here. * marks the point of attachment. C20 diacid = O=C(O)CCCCCCCCCCCCCCCCCCC(=O)*; γGlu = O=C(O)[C@H](CCC(=O)[*:2])N[*:1]; AEEA = NCCOCCOCC(=O)O

B1: N^ε1-[2-[2-[2-[[2-[2-[2-[[(4S)-4-carboxy-4-(19-carboxynonadecanoylamino)butanoyl]amino]ethoxy]ethoxy]acetyl]amino]ethoxy]ethoxy]acetyl]-[Arg17,Pro21,Pro27,Glu35 … (peptide)
peptide: K([AEEA-AEEA-γGlu-C20 diacid])CNTATCATQRLANFLRHSSPNFGAIPSSTNVGSETY-NH2
modifications: disulfide 2-7; N-terminus assumed
SMILES: CC[C@H](C)[C@H](NC(=O)[C@H](C)NC(=O)CNC(=O)[C@H](Cc1ccccc1)NC(=O)[C@H](CC(N)=O)NC(=O)[C@@H]1CCCN1C(=O)[C@H](CO)NC(=O)[C@H](CO)NC(=O)[C@H](Cc1c[nH]cn1)NC(=O)[C@H](CCCNC(=N)N)NC(=O)[C@H](CC(C)C)NC(=O)[C@H](Cc1ccccc1)NC(=O)[C@H](CC(N)=O)NC(=O)[C@H](C)NC(=O)[C@H](CC(C)C)NC(=O)[C@H](CCCNC(=N)N)NC(=O)[C@H](CCC(N)=O)NC(=O)[C@@H](NC(=O)[C@H](C)NC(=O)[C@@H]1CSSC[C@H](NC(=O)[C@@H](N)CCCCNC(=O)COCCOCCNC(=O)COCCOCCNC(=O)CC[C@H](NC(=O)CCCCCCCCCCCCCCCCCCC(=O)O)C(=O)O)C(=O)N[C@@H](CC(N)=O)C(=O)N[C@@H]([C@@H](C)O)C(=O)N[C@@H](C)C(=O)N[C@@H]([C@@H](C)O)C(=O)N1)[C@@H](C)O)C(=O)N1CCC[C@H]1C(=O)N[C@@H](CO)C(=O)N[C@@H](CO)C(=O)N[C@H](C(=O)N[C@@H](CC(N)=O)C(=O)N[C@H](C(=O)NCC(=O)N[C@@H](CO)C(=O)N[C@@H](CCC(=O)O)C(=O)N[C@H](C(=O)N[C@@H](Cc1ccc(O)cc1)C(N)=O)[C@@H](C)O)C(C)C)[C@@H](C)O
notes: Derivative of human amylin; also called compound 25
On to B1, for which the results for the IC50 (in assay [1]; with rat calcitonin receptor [4]) were 3.48 nM and 131 nM, respectively. In the assay with rat calcitonin receptor [2], the “Ratio rCT/rAmylin binding” value was 37.7. Besides, the “Ratio hCT/hAmylin binding” value in assay [3] was 56.5.

B2: N^ε1-[(4S)-4-carboxy-4-(19-carboxynonadecanoylamino)butanoyl]-[Arg17,Pro21,Pro27,Lys35]-h-amylin (peptide)
peptide: K([γGlu-C20 diacid])CNTATCATQRLANFLRHSSPNFGAIPSSTNVGSKTY-NH2
modifications: disulfide 2-7; N-terminus assumed
SMILES: CC[C@H](C)[C@H](NC(=O)[C@H](C)NC(=O)CNC(=O)[C@H](Cc1ccccc1)NC(=O)[C@H](CC(N)=O)NC(=O)[C@@H]1CCCN1C(=O)[C@H](CO)NC(=O)[C@H](CO)NC(=O)[C@H](Cc1c[nH]cn1)NC(=O)[C@H](CCCNC(=N)N)NC(=O)[C@H](CC(C)C)NC(=O)[C@H](Cc1ccccc1)NC(=O)[C@H](CC(N)=O)NC(=O)[C@H](C)NC(=O)[C@H](CC(C)C)NC(=O)[C@H](CCCNC(=N)N)NC(=O)[C@H](CCC(N)=O)NC(=O)[C@@H](NC(=O)[C@H](C)NC(=O)[C@@H]1CSSC[C@H](NC(=O)[C@@H](N)CCCCNC(=O)CC[C@H](NC(=O)CCCCCCCCCCCCCCCCCCC(=O)O)C(=O)O)C(=O)N[C@@H](CC(N)=O)C(=O)N[C@@H]([C@@H](C)O)C(=O)N[C@@H](C)C(=O)N[C@@H]([C@@H](C)O)C(=O)N1)[C@@H](C)O)C(=O)N1CCC[C@H]1C(=O)N[C@@H](CO)C(=O)N[C@@H](CO)C(=O)N[C@H](C(=O)N[C@@H](CC(N)=O)C(=O)N[C@H](C(=O)NCC(=O)N[C@@H](CO)C(=O)N[C@@H](CCCCN)C(=O)N[C@H](C(=O)N[C@@H](Cc1ccc(O)cc1)C(N)=O)[C@@H](C)O)C(C)C)[C@@H](C)O
notes: Derivative of human amylin; also called compound 35
With B2, the IC50 turned out to be 0.948 nM in assay [1] and 61.7 nM in the assay with rat calcitonin receptor [4]. In the assay with rat calcitonin receptor [2], the “Ratio rCT/rAmylin binding” value amounted to 65.1. Also, the “Ratio hCT/hAmylin binding” value in assay [3] is 50.3.

B3: N^ε1-[2-[2-[2-[[(4S)-4-carboxy-4-(19-carboxynonadecanoylamino)butanoyl]amino]ethoxy]ethoxy]acetyl]-[Arg17,Pro21,Pro27]-h-amylin (peptide)
peptide: K([AEEA-γGlu-C20 diacid])CNTATCATQRLANFLRHSSPNFGAIPSSTNVGSNTY-NH2
modifications: disulfide 2-7; N-terminus assumed
SMILES: CC[C@H](C)[C@H](NC(=O)[C@H](C)NC(=O)CNC(=O)[C@H](Cc1ccccc1)NC(=O)[C@H](CC(N)=O)NC(=O)[C@@H]1CCCN1C(=O)[C@H](CO)NC(=O)[C@H](CO)NC(=O)[C@H](Cc1c[nH]cn1)NC(=O)[C@H](CCCNC(=N)N)NC(=O)[C@H](CC(C)C)NC(=O)[C@H](Cc1ccccc1)NC(=O)[C@H](CC(N)=O)NC(=O)[C@H](C)NC(=O)[C@H](CC(C)C)NC(=O)[C@H](CCCNC(=N)N)NC(=O)[C@H](CCC(N)=O)NC(=O)[C@@H](NC(=O)[C@H](C)NC(=O)[C@@H]1CSSC[C@H](NC(=O)[C@@H](N)CCCCNC(=O)COCCOCCNC(=O)CC[C@H](NC(=O)CCCCCCCCCCCCCCCCCCC(=O)O)C(=O)O)C(=O)N[C@@H](CC(N)=O)C(=O)N[C@@H]([C@@H](C)O)C(=O)N[C@@H](C)C(=O)N[C@@H]([C@@H](C)O)C(=O)N1)[C@@H](C)O)C(=O)N1CCC[C@H]1C(=O)N[C@@H](CO)C(=O)N[C@@H](CO)C(=O)N[C@H](C(=O)N[C@@H](CC(N)=O)C(=O)N[C@H](C(=O)NCC(=O)N[C@@H](CO)C(=O)N[C@@H](CC(N)=O)C(=O)N[C@H](C(=O)N[C@@H](Cc1ccc(O)cc1)C(N)=O)[C@@H](C)O)C(C)C)[C@@H](C)O
notes: Derivative of human amylin; also called compound 41
As to B3, the figures for the IC50 (in assay [1]; in the assay with rat calcitonin receptor [4]) were 1.37 nM and 74.1 nM, respectively. For the same molecule, in the assay with rat calcitonin receptor [2], the “Ratio rCT/rAmylin binding” value is 54. Moreover, the “Ratio hCT/hAmylin binding” value in assay [3] was 49.9.

B4: N^ε1-[(4S)-4-carboxy-4-(19-carboxynonadecanoylamino)butanoyl]-[Arg17,Pro21,Pro27,Glu35]-h-amylin (peptide)
peptide: K([γGlu-C20 diacid])CNTATCATQRLANFLRHSSPNFGAIPSSTNVGSETY-NH2
modifications: disulfide 2-7; N-terminus assumed
SMILES: CC[C@H](C)[C@H](NC(=O)[C@H](C)NC(=O)CNC(=O)[C@H](Cc1ccccc1)NC(=O)[C@H](CC(N)=O)NC(=O)[C@@H]1CCCN1C(=O)[C@H](CO)NC(=O)[C@H](CO)NC(=O)[C@H](Cc1c[nH]cn1)NC(=O)[C@H](CCCNC(=N)N)NC(=O)[C@H](CC(C)C)NC(=O)[C@H](Cc1ccccc1)NC(=O)[C@H](CC(N)=O)NC(=O)[C@H](C)NC(=O)[C@H](CC(C)C)NC(=O)[C@H](CCCNC(=N)N)NC(=O)[C@H](CCC(N)=O)NC(=O)[C@@H](NC(=O)[C@H](C)NC(=O)[C@@H]1CSSC[C@H](NC(=O)[C@@H](N)CCCCNC(=O)CC[C@H](NC(=O)CCCCCCCCCCCCCCCCCCC(=O)O)C(=O)O)C(=O)N[C@@H](CC(N)=O)C(=O)N[C@@H]([C@@H](C)O)C(=O)N[C@@H](C)C(=O)N[C@@H]([C@@H](C)O)C(=O)N1)[C@@H](C)O)C(=O)N1CCC[C@H]1C(=O)N[C@@H](CO)C(=O)N[C@@H](CO)C(=O)N[C@H](C(=O)N[C@@H](CC(N)=O)C(=O)N[C@H](C(=O)NCC(=O)N[C@@H](CO)C(=O)N[C@@H](CCC(=O)O)C(=O)N[C@H](C(=O)N[C@@H](Cc1ccc(O)cc1)C(N)=O)[C@@H](C)O)C(C)C)[C@@H](C)O
notes: Derivative of human amylin; also called compound 27
Consider B4, for which the IC50 in assay [1] was determined as 0.614 nM; with rat calcitonin receptor [4], 90.2 nM. In addition, the “Ratio rCT/rAmylin binding” value in the assay with rat calcitonin receptor [2] is 147. For the same molecule, the “Ratio hCT/hAmylin binding” value in assay [3] was found to be 41.3.

B5: N^ε1-[2-[2-[2-[[(4S)-4-carboxy-4-(19-carboxynonadecanoylamino)butanoyl]amino]ethoxy]ethoxy]acetyl]-[Arg17,Pro21,Pro27,Glu35]-h-amylin (peptide)
peptide: K([AEEA-γGlu-C20 diacid])CNTATCATQRLANFLRHSSPNFGAIPSSTNVGSETY-NH2
modifications: disulfide 2-7; N-terminus assumed
SMILES: CC[C@H](C)[C@H](NC(=O)[C@H](C)NC(=O)CNC(=O)[C@H](Cc1ccccc1)NC(=O)[C@H](CC(N)=O)NC(=O)[C@@H]1CCCN1C(=O)[C@H](CO)NC(=O)[C@H](CO)NC(=O)[C@H](Cc1c[nH]cn1)NC(=O)[C@H](CCCNC(=N)N)NC(=O)[C@H](CC(C)C)NC(=O)[C@H](Cc1ccccc1)NC(=O)[C@H](CC(N)=O)NC(=O)[C@H](C)NC(=O)[C@H](CC(C)C)NC(=O)[C@H](CCCNC(=N)N)NC(=O)[C@H](CCC(N)=O)NC(=O)[C@@H](NC(=O)[C@H](C)NC(=O)[C@@H]1CSSC[C@H](NC(=O)[C@@H](N)CCCCNC(=O)COCCOCCNC(=O)CC[C@H](NC(=O)CCCCCCCCCCCCCCCCCCC(=O)O)C(=O)O)C(=O)N[C@@H](CC(N)=O)C(=O)N[C@@H]([C@@H](C)O)C(=O)N[C@@H](C)C(=O)N[C@@H]([C@@H](C)O)C(=O)N1)[C@@H](C)O)C(=O)N1CCC[C@H]1C(=O)N[C@@H](CO)C(=O)N[C@@H](CO)C(=O)N[C@H](C(=O)N[C@@H](CC(N)=O)C(=O)N[C@H](C(=O)NCC(=O)N[C@@H](CO)C(=O)N[C@@H](CCC(=O)O)C(=O)N[C@H](C(=O)N[C@@H](Cc1ccc(O)cc1)C(N)=O)[C@@H](C)O)C(C)C)[C@@H](C)O
notes: Derivative of human amylin; also called compound 26
Regarding B5, the values for the IC50 (in assay [1]; in the assay with rat calcitonin receptor [4]) were 0.491 nM and 152 nM, respectively. The “Ratio rCT/rAmylin binding” value with rat calcitonin receptor [2] is 309. Further, in assay [3], the “Ratio hCT/hAmylin binding” value was determined as 47.5.

The term IC50 denotes the concentration that inhibits the measured activity by half.

Source of the values: patent US20140087995A1 (published 2014).
